In patent US20220162293A1 (UNIVERSITY OF BRITISH COLUMBIA, published 2022):
Substitutions are numbered along the chain they refer to. Values belong to the binder of their own block, whether it stands above or below them.

What was measured:
[1] = molecular target: T1, cyclo(CGGTTEQGG) (SEQ ID NO: 2) (cyclic peptide: head to tail cyclization (amide condensation of the linear peptide)); test: indirect ELISA, peptide coated 0.1 µg/well, neat hybridoma supernatant
T1 construct: Coated on ELISA plates
T1 peptide: CGGTTEQGG
Protocol: (§1) ELISA plates were coated with 0.1 μg/well with peptide cyclo([…]) (SEQ ID NO: 2) or cyclo(CGTTEQG) (SEQ ID NO: 3) or the linear versions thereof at 100 μL/well in carbonate Coating Buffer (pH 9.6) overnight at 4 C. In other assays, cyclo([…]) (SEQ ID NO: 32) or cyclo (CGTTEGG) (SEQ ID NO: 29) were also used to coat the ELISA plates.
(§2) The plates were blocked with 3% skim milk powder in PBS for 1 hour at room temperature. The primary antibody, hybridoma tissue culture supernatant neat at 100 uL/well, was incubated for 1 hour at 37 C with shaking. The secondary antibody, goat anti-mouse IgGy-HRP at a 1:10,000 dilution was added at 100 uL/well in PBS-Tween and incubated for 1 hour at 37 C with shaking. All washing steps were performed for 30 mins with PBS-Tween. TMB Substrate was added at 50 uL/well, developed in the dark and stopped with equal volume 1M HCl. The development time was 1-2 min and the plate was read at 450 nm.

BSA = molecular target: T2, BSA (bovine, UniProt P02769 25-607); test: screen of hybridoma supernatants
T2 construct: Carrier protein used as negative screening antigen; also called bovine serum albumin
T2 sequence (P02769 25-607 limits assumed): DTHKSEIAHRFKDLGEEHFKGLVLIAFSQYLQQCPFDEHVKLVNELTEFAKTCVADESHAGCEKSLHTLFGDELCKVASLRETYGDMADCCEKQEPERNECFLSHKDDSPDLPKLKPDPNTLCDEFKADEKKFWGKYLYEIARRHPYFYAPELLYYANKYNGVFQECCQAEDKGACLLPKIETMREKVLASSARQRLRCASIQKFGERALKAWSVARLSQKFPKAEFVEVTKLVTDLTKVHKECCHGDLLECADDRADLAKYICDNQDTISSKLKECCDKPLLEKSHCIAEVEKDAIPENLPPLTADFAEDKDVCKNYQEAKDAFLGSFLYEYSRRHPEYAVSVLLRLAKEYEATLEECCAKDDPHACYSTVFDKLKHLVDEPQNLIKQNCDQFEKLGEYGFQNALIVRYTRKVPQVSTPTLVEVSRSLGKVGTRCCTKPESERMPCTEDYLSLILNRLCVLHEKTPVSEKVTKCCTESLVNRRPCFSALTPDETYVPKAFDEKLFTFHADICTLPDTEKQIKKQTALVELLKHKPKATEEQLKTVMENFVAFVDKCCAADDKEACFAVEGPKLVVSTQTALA

Linear … (SEQ ID NO: 2) = molecular target: T3, Linear … (SEQ ID NO: 2); test: indirect ELISA, peptide coated 0.1 µg/well, neat hybridoma supernatant
T3 sequence (peptide): CGGTTEQGG

[2] = molecular target: T4, Linear CGGTTEQGG (SEQ ID NO: 2); test: as above
T4 construct: Coated on ELISA plates; also called linear peptide
T4 peptide: CGGTTEQGG
Protocol: as §1, §2

[3] = molecular target: T5, TDP-43 in human spinal cord homogenates of sporadic ALS patients (human, UniProt Q13148 1-414, limits assumed); test: dot blot of spinal cord homogenates on PVDF
T5 construct: Tissue homogenate dotted on PVDF; also called sALS samples; pathogenic TDP43 in spinal cord homogenates from ALS patients
T5 sequence (Q13148 whole entry): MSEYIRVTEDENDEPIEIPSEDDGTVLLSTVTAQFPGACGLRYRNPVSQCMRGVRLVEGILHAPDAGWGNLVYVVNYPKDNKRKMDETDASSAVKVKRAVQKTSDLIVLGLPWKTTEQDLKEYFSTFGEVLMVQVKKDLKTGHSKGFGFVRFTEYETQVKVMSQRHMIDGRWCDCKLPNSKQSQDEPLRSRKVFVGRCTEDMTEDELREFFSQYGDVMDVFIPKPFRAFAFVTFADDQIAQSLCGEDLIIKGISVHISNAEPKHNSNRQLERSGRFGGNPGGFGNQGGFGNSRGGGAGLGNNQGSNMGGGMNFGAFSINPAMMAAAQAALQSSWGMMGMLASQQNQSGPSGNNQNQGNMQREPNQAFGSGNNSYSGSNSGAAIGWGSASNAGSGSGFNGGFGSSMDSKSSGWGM

ELISA signal (read at 450 nm) [1]: 2.29 absorbance at 450 nm
binding result (BSA): no binding
ELISA signal (read at 450 nm) (absorbance at 450 nm) (Linear … (SEQ ID NO: 2)): 0.115
B1: 9C5 (antibody, V domains shown)
VH: EVQLVESGGGLVKPGGSLKLSCAASGFTFSDYYMYWVRQTPEKRLEWVATISDGGSYTSYPDSVKGRFTISRDNAKNNLYLQMSSLRSEDTAMYYCARDYYGSSSYTSGFAYWGQGTLVTVSA
VL: DVLMTQTPLSLPVSLGDQASISCRSSQSIVHSNGNTYLEWYLQKPGQSPKLLIYKVSNRFSGVPDRFSGSGSGTDFTLKISRVEAEDLGVYYCFQGSHVPGTFGGGTKLEIK
notes: IgG3, kappa; also called clone 9C5; antibody 6

ELISA signal (read at 450 nm) [1]: 1.1 absorbance at 450 nm
ELISA signal (read at 450 nm) [2]: 0.191 absorbance at 450 nm
binding result (BSA): no binding
binding result [3]: binds
B2: 6C5 (antibody, V domains shown)
VH: EVKLVESGGGLVQPGGSLKLSCATSGFTFSDYYMYWVRQTPEKRLEWVAYISNGGGSTYYPDTVKGRFTISRDNAKNTLYLQMSRLKSEDTAMYYCAREGGTAWFAYWGQGTLVTVSA
VL: B1 VL with G101Y
notes: IgG1, kappa; also called Antibody 6C5

ELISA signal (read at 450 nm) [1]: 1.1 absorbance at 450 nm
binding result (BSA): no binding
ELISA signal (read at 450 nm) (absorbance at 450 nm) (Linear … (SEQ ID NO: 2)): 0.071
B3: 11F3 (antibody, V domains shown)
VH: QIQLVQSGPELKKPGETVKISCKASGYTFTDYSMHWVKHSPGKGLKWMGWINTETGEPTYADDFKGRFAFSLETSASTAYLQINNLKNEDTATYFCARGYGNWFAYWGQGTLVTVSA
VL: QIVLTQSPAIMSASLGERVTMTCTASSSVSSSYLHWYQQKPGSSPKLWIYSTSNLASGVPARFSGSGSGTSYSLTISSMEAEDAATYYCHQYHRSPLTFGAGTKLELK
notes: IgG1, kappa; also called clone 11F3; antibody 3

ELISA signal (read at 450 nm) [1]: 2.83 absorbance at 450 nm
binding result (BSA): no binding
ELISA signal (read at 450 nm) (absorbance at 450 nm) (Linear … (SEQ ID NO: 2)): 0.068
B4: 3H5 (antibody, V domains shown)
VH: QIQLVQSGPELKKPGETVKISCKASGYTFTDYSMHWVKQAPGKGLKWMGWINTETGEPTYADDFKGRFAFSLETSASTAYLQINNLKNEDTATYFCASRRWYPYYFDYWGQGTTLTVSS
VL: QAVVTQESALTTSPGETVTLTCRSSTGAVTTSNYANWVQEKPDHLFTGLIGGPNNRAPGVPARFSGSLIGDKAALTITGAQTEDEAIYFCALWYSNHWVFGGGTKLTVL
notes: IgG1, lambda; also called clone 3H5; antibody 4
